According to article PMC10104637, “Phosphorylation of USP29 by CDK1 Governs TWIST1 Stability and Oncogenic Functions” (Advanced Science, 2023):

Target: T1, GST-USP29 (UniProt Q9HBJ7 1-922)
T1 construct: USP29 cloned into pGEX-4T-1; also called purified GST-USP29; GST-USP29 WT; source: E. coli BL21, purified (Pierce Glutathione Agarose)
T1 sequence (looked up): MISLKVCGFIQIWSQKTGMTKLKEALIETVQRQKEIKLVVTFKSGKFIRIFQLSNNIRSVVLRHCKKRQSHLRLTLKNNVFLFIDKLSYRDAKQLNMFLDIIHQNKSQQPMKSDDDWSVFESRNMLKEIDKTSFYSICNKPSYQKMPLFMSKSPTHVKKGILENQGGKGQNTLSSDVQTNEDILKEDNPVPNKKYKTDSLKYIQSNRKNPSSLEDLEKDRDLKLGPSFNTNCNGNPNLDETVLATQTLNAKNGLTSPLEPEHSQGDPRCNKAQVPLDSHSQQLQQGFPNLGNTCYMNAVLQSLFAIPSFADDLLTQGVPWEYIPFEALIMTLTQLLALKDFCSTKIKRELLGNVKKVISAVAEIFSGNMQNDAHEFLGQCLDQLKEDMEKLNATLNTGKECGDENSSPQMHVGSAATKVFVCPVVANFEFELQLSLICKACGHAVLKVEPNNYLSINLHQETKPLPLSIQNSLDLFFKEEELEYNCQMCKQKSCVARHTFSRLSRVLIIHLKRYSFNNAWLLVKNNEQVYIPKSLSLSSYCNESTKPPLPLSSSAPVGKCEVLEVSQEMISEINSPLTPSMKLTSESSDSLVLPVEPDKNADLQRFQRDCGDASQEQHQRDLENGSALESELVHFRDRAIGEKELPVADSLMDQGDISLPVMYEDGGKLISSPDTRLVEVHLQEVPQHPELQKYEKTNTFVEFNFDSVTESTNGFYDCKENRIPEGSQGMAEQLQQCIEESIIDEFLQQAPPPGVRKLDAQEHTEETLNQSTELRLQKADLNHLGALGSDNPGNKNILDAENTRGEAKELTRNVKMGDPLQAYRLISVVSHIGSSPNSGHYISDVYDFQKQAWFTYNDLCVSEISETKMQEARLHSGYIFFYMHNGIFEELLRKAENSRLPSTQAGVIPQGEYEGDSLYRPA
Assay: pull-down; GST or GST-USP29 bound to Pierce Glutathione Agarose incubated with the purified His-tagged protein overnight at 4 °C; beads washed four times with PBS; western blot
Conditions: both partners purified

- binding result: binds
B1: His-TWIST1 (natural protein, UniProt Q15672 1-202, looked up)
chain: MMQDVSSSPVSPADDSLSNSEEEPDRQQPPSGKRGGRKRRSSRRSAGGGAGPGGAAGGGVGGGDEPGSPAQGKRGKKSAGCGGGGGAGGGGGSSSGGGSPQSYEELQTQRVMANVRERQRTQSLNEAFAALRKIIPTLPSDKLSKIQTLKLAARYIDFLYQVLQSDELDSKMASCSYVAHERLSYAFSVWRMEGAWSMSASH
notes: TWIST1 cloned into PET28A; also called PET28A-TWIST1; source: E. coli BL21, purified
